In the supplement of paper PMC10065799, “High-throughput profiling of sequence recognition by tyrosine kinases and SH2 domains using bacterial peptide display” (eLife, 2023):

target: FGFR1 (UniProt P11362); experiment: phosphorylation enrichment, bacterial display (enrichment ratio); higher = better substrate or ligand; peptides without Tyr show the background
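Wherever SH2 binding enrichment of the phosphorylated peptide, bacterial display is given: peptide library displayed on the E. coli surface as eCPX fusions, selected cells deep-sequenced, score is each peptide's frequency after selection divided by its frequency in the input.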
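Wherever phosphorylation enrichment, bacterial display is given: 11-residue human phosphosite peptides and single-mutation variants displayed on the E. coli surface, counted by deep sequencing, each peptide's frequency after selection divided by its frequency in the unselected input library; frequency after pTyr selection over input frequency; kinase dosed for 20-30% of maximal phosphorylation in three min.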

Sequence of FGFR1 (P11362 whole entry, looked up, the tested form may be a part): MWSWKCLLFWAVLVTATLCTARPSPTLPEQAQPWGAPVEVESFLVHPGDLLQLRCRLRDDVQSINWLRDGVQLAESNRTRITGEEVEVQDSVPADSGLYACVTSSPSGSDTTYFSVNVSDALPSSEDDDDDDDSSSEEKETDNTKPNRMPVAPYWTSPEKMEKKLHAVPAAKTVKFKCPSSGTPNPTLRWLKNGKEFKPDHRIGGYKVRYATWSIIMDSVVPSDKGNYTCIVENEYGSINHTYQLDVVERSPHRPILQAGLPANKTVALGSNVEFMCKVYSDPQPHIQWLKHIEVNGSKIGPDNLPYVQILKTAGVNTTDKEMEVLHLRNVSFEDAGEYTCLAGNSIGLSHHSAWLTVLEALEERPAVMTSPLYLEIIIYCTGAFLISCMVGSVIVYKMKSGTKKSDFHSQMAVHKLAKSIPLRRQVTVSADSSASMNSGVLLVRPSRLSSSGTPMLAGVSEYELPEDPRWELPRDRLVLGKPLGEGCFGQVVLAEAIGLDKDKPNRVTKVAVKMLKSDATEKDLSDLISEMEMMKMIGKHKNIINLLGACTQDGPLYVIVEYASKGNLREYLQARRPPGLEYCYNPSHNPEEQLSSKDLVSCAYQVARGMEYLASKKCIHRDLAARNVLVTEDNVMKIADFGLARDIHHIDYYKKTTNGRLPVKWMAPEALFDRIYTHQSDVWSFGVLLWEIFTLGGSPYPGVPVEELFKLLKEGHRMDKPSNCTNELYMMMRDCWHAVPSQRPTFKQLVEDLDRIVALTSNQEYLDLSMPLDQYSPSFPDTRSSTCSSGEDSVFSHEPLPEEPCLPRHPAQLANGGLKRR

Row | Sequence | phosphorylation enrichment
1 | LSDGPYSNSYE [EPOR_Y485_P488S] | 0.862
2 | MDQAEYQAKIR [DHX58_Y518] | 0.441
3 | SADIAYNFRHG [PAH_Y166_F161S_YF] | 0.433
4 | EKQVAYCPSGK [ROS1_Y2323] | 0.49
5 | EVGRVYLFLQP [ITGA2B_Y360] | 0.401
6 | DGTGHYLCNAC [GATA5_Y208] | 0.456
7 | IGKAGYTDKMV [ENO1_Y236_V240M] | 0.377
8 | EFDRLYEEFTR [PIK3R1_Y467_YF] | 0.65
9 | EEKKKYYDTKI [CASP5_Y103] | 0.468
10 | DLSEVYKPCRK [CCDC93_Y176_R179C] | 0.53
11 | LCRYGYANTSE [SI_Y1233] | 0.656
12 | LHSEAYLKYNE [PBRM1_Y1610_I1614N] | 0.409
13 | IPVNGYQPVPA [ROR2_Y824_V819I] | 0.36
14 | KLPYPYDDPFS [GPX2_Y127] | 0.507
15 | AALRLYHVSDS [VIL1_Y256_K254R] | 0.641
16 | RFVTRYIFNRE [HLA-DQB1_Y62_YF] | 0.923
17 | LARDMDDKEFF [MET_Y1230_Y1230D_YF] | 0.453

Row | Sequence | phosphorylation enrichment
18 | RIDPDYVGRVR [IGSF9_Y81] | 0.496
19 | KQLYAYKMLMA [TMC2_Y209] | 0.515
20 | MEYLPYGSLRD [JAK2_Y934] | 1.15
21 | GKTQQYECKWY [BCR_Y751_D752E] | 0.499
22 | PIFEGYALPHA [ACTA1_Y171_YF] | 0.536
23 | SLIDGYFRLTE [JAK2_Y372_A377E_YF] | 0.553
24 | WVFNHYRCIIW [BRCA2_Y2624_W2626C_YF] | 0.498
25 | KVITDYYVDMK [MPP4_Y566] | 3.97
26 | KWKQKYEESQS [MYH6_Y1462_E1457K] | 0.431
27 | QEMMEYRHQIQ [DES_Y324] | 0.677
28 | QEGPEYWDRET [HLA-A_Y83_Q86R] | 0.85
29 | SHSMRYFYTAV [HLA-C_Y31_D33Y] | 0.778
30 | EPYELYCEMGS [CBL_Y371_Q367P] | 3.54
31 | CTLLPYFSAPV [DGKE_Y269_R273P_YF] | 0.615
32 | SQSKGYRPKLF [SIPA1L3_Y1376_G1371S_YF] | 0.433
33 | IGGHAYGDQFR [IDH1_Y135_R132G_YF] | 0.351

target: Grb2 SH2 (UniProt P62993); experiment: SH2 binding enrichment of the phosphorylated peptide, bacterial display (enrichment ratio); higher = better substrate or ligand; peptides without Tyr show the background

Row | Sequence | SH2 binding enrichment
34 | LSDGPYSNSYE [EPOR_Y485_P488S] | 0.557
35 | MDQAEYQAKIR [DHX58_Y518] | 0.754
36 | EVGRVYLFLQP [ITGA2B_Y360] | 0.726
37 | DGTGHYLCNAC [GATA5_Y208] | 0.83
38 | IGKAGYTDKMV [ENO1_Y236_V240M] | 0.82
39 | EEKKKYYDTKI [CASP5_Y103] | 0.698
40 | DLSEVYKPCRK [CCDC93_Y176_R179C] | 0.963
41 | KLPYPYDDPFS [GPX2_Y127] | 0.97
42 | RFVTRYIFNRE [HLA-DQB1_Y62_YF] | 0.627
43 | LARDMDDKEFF [MET_Y1230_Y1230D_YF] | 1.11
44 | RIDPDYVGRVR [IGSF9_Y81] | 0.758
45 | MEYLPYGSLRD [JAK2_Y934] | 0.723
46 | GKTQQYECKWY [BCR_Y751_D752E] | 0.677
47 | PIFEGYALPHA [ACTA1_Y171_YF] | 0.877
48 | SLIDGYFRLTE [JAK2_Y372_A377E_YF] | 0.784
49 | WVFNHYRCIIW [BRCA2_Y2624_W2626C_YF] | 0.82
50 | QEMMEYRHQIQ [DES_Y324] | 1.22
51 | QEGPEYWDRET [HLA-A_Y83_Q86R] | 0.787
52 | SHSMRYFYTAV [HLA-C_Y31_D33Y] | 1.28
53 | EPYELYCEMGS [CBL_Y371_Q367P] | 1.11
54 | CTLLPYFSAPV [DGKE_Y269_R273P_YF] | 0.71
55 | IGGHAYGDQFR [IDH1_Y135_R132G_YF] | 0.826

The next lines start with the values.

Row | SH2 binding enrichment | Sequence
56 | 0.869 | SADIAYNFRHG [PAH_Y166_F161S_YF]
57 | 0.879 | EKQVAYCPSGK [ROS1_Y2323]
58 | 0.92 | EFDRLYEEFTR [PIK3R1_Y467_YF]
59 | 2 | LCRYGYANTSE [SI_Y1233]
60 | 0.955 | LHSEAYLKYNE [PBRM1_Y1610_I1614N]
61 | 0.934 | IPVNGYQPVPA [ROR2_Y824_V819I]
62 | 0.757 | AALRLYHVSDS [VIL1_Y256_K254R]
63 | 1.32 | KQLYAYKMLMA [TMC2_Y209]
64 | 0.875 | KVITDYYVDMK [MPP4_Y566]
65 | 1.35 | KWKQKYEESQS [MYH6_Y1462_E1457K]
66 | 0.852 | SQSKGYRPKLF [SIPA1L3_Y1376_G1371S_YF]

target: c-Src SH2; experiment: as above

Row | Sequence | SH2 binding enrichment
67 | LSDGPYSNSYE [EPOR_Y485_P488S] | 1.56
68 | MDQAEYQAKIR [DHX58_Y518] | 0.612
69 | EVGRVYLFLQP [ITGA2B_Y360] | 0.417
70 | DGTGHYLCNAC [GATA5_Y208] | 0.45
71 | IGKAGYTDKMV [ENO1_Y236_V240M] | 0.513
72 | EEKKKYYDTKI [CASP5_Y103] | 0.432
73 | DLSEVYKPCRK [CCDC93_Y176_R179C] | 0.528
74 | KLPYPYDDPFS [GPX2_Y127] | 3.58
75 | RFVTRYIFNRE [HLA-DQB1_Y62_YF] | 0.355
76 | LARDMDDKEFF [MET_Y1230_Y1230D_YF] | 0.508
77 | RIDPDYVGRVR [IGSF9_Y81] | 0.583
78 | MEYLPYGSLRD [JAK2_Y934] | 0.498
79 | GKTQQYECKWY [BCR_Y751_D752E] | 0.735
80 | PIFEGYALPHA [ACTA1_Y171_YF] | 4.62
81 | SLIDGYFRLTE [JAK2_Y372_A377E_YF] | 1.85
82 | WVFNHYRCIIW [BRCA2_Y2624_W2626C_YF] | 0.588
83 | QEMMEYRHQIQ [DES_Y324] | 0.485
84 | QEGPEYWDRET [HLA-A_Y83_Q86R] | 0.533
85 | SHSMRYFYTAV [HLA-C_Y31_D33Y] | 2
86 | EPYELYCEMGS [CBL_Y371_Q367P] | 0.695
87 | CTLLPYFSAPV [DGKE_Y269_R273P_YF] | 0.462
88 | IGGHAYGDQFR [IDH1_Y135_R132G_YF] | 0.571

Now from value to sequence:

Row | SH2 binding enrichment | Sequence
89 | 0.535 | SADIAYNFRHG [PAH_Y166_F161S_YF]
90 | 0.464 | EKQVAYCPSGK [ROS1_Y2323]
91 | 0.516 | EFDRLYEEFTR [PIK3R1_Y467_YF]
92 | 2.24 | LCRYGYANTSE [SI_Y1233]
93 | 0.497 | LHSEAYLKYNE [PBRM1_Y1610_I1614N]
94 | 0.756 | IPVNGYQPVPA [ROR2_Y824_V819I]
95 | 0.593 | AALRLYHVSDS [VIL1_Y256_K254R]
96 | 0.842 | KQLYAYKMLMA [TMC2_Y209]
97 | 2.9 | KVITDYYVDMK [MPP4_Y566]
98 | 1.04 | KWKQKYEESQS [MYH6_Y1462_E1457K]
99 | 0.528 | SQSKGYRPKLF [SIPA1L3_Y1376_G1371S_YF]

target: SHP2-C SH2; experiment: as above

Row | Sequence | SH2 binding enrichment
100 | LSDGPYSNSYE [EPOR_Y485_P488S] | 0.523
101 | MDQAEYQAKIR [DHX58_Y518] | 1.04
102 | EVGRVYLFLQP [ITGA2B_Y360] | 0.737
103 | DGTGHYLCNAC [GATA5_Y208] | 0.658
104 | IGKAGYTDKMV [ENO1_Y236_V240M] | 1.47
105 | EEKKKYYDTKI [CASP5_Y103] | 0.669
106 | DLSEVYKPCRK [CCDC93_Y176_R179C] | 0.853
107 | KLPYPYDDPFS [GPX2_Y127] | 0.544
108 | RFVTRYIFNRE [HLA-DQB1_Y62_YF] | 0.721
109 | LARDMDDKEFF [MET_Y1230_Y1230D_YF] | 0.968
110 | RIDPDYVGRVR [IGSF9_Y81] | 0.755
111 | MEYLPYGSLRD [JAK2_Y934] | 1.19
112 | GKTQQYECKWY [BCR_Y751_D752E] | 0.584
113 | PIFEGYALPHA [ACTA1_Y171_YF] | 0.769
114 | SLIDGYFRLTE [JAK2_Y372_A377E_YF] | 6.41
115 | WVFNHYRCIIW [BRCA2_Y2624_W2626C_YF] | 0.755
116 | QEMMEYRHQIQ [DES_Y324] | 0.579
117 | QEGPEYWDRET [HLA-A_Y83_Q86R] | 0.539
118 | SHSMRYFYTAV [HLA-C_Y31_D33Y] | 1.97
119 | EPYELYCEMGS [CBL_Y371_Q367P] | 0.564
120 | CTLLPYFSAPV [DGKE_Y269_R273P_YF] | 0.622
121 | IGGHAYGDQFR [IDH1_Y135_R132G_YF] | 0.852

Next, values leading:

Row | SH2 binding enrichment | Sequence
122 | 0.798 | SADIAYNFRHG [PAH_Y166_F161S_YF]
123 | 0.844 | EKQVAYCPSGK [ROS1_Y2323]
124 | 1.05 | EFDRLYEEFTR [PIK3R1_Y467_YF]
125 | 0.85 | LCRYGYANTSE [SI_Y1233]
126 | 0.862 | LHSEAYLKYNE [PBRM1_Y1610_I1614N]
127 | 0.692 | IPVNGYQPVPA [ROR2_Y824_V819I]
128 | 0.526 | AALRLYHVSDS [VIL1_Y256_K254R]
129 | 1.4 | KQLYAYKMLMA [TMC2_Y209]
130 | 0.704 | KVITDYYVDMK [MPP4_Y566]
131 | 1.09 | KWKQKYEESQS [MYH6_Y1462_E1457K]
132 | 0.498 | SQSKGYRPKLF [SIPA1L3_Y1376_G1371S_YF]
